In this test the target is T1, Recombinant His-Norbin (His-tagged rat Norbin protein) (rat, UniProt O35095 1-729).
T1 construct: Norbin (Neurochondrin), rat, full-length construct; 98% identical to human Norbin; also called Neurochondrin; NCDN; source: M15 [pREP4] bacteria, inclusion bodies solubilized in 6 M guanidine hydrochloride, renatured by dialysis, purified; not shown: 6xHis, C-terminal, kept
T1 sequence (looked up): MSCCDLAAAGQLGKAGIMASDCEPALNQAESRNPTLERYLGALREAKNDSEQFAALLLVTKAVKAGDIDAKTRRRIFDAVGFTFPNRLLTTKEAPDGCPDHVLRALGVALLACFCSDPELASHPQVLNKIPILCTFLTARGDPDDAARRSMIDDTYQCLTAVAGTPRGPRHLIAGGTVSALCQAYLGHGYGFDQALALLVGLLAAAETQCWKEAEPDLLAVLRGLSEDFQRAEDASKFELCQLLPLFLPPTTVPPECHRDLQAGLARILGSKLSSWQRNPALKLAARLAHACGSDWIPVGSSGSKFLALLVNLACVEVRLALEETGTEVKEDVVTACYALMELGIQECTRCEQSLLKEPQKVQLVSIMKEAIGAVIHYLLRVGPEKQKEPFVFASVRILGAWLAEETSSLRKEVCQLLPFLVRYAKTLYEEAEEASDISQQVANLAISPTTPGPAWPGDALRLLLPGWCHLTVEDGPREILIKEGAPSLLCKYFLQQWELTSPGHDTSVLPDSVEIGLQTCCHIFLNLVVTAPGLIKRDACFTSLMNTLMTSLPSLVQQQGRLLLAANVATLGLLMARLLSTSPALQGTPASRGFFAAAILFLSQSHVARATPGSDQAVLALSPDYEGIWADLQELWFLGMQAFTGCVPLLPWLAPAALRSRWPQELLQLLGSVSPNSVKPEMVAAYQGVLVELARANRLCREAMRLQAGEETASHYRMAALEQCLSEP
Description: pull-down; GST-tagged GPCR C-terminal tails (or GST) from bacterial lysates bound to glutathione Sepharose, washed twice in PBS, 2% Triton X-100, 5 mM DTT, incubated with 50 μg purified recombinant His-Norbin for 3 h at 4 °C, washed 3 x in PBS, 1% Triton X-100; western blot with His antibody. The following applies: both partners purified. Background: In western blotting, separated proteins are transferred to a membrane and probed.

B1: GST-tagged C-terminal tail of human CXCR4 (domain or fragment)
chain: FHCCLNPILYAFLGAKFKTSAQHALTSVSRGSSLKILSKGKRGGHSSVSTESESSSFHSS
notes: In pGEX6P1, cloned with BamH1 and Xho1; also called GST-CXCR4
As for B1, the binding result was “binds”.

B2: GST-tagged C-terminal tail of MCH1 (melanin-concentrating hormone receptor 1) (domain or fragment)
chain: ANSCLNPFVYIVLCETFRKRLVLSVKPAAQGQLRAVSNAQTADEERTESKGT
notes: In pGEX4T3; Positive control; also called GST-MCH1
B2: the binding result is on record as “binds”.

B3: GST-tagged C-terminal tail of human C5aR1 (domain or fragment)
chain: INCCINPIIYVVAGQGFQGRLRKSLPSLLRNVLTEESVVRESKSFTRSTVDTMAQKTQAV
notes: In pGEX4T3, cloned with BamH1 and Xho1; also called GST-C5aR1
Regarding B3, the binding result is recorded as “binds”.
